{"source": "patent US9605080B2", "about": "“Antibodies against CD73” (BRISTOL-MYERS SQUIBB COMPANY, priority 2014, dated 2017)", "molecules": {"B1": {"name": "7A11: human anti-CD73 mAb, IgG1za, VK1; VH SEQ ID NO: 88, VL SEQ ID NO: 92 (antibody, V domains shown)", "VH": "EVQLVESGGGLVQTGRSLRLSCAASGFTFDDYAMHWVRQAPGKGLEWVSDISWNSDIIGYADSVKGRFTISRDNAKNSLYLQMNSLRAEDTALYYCAKDIYGSGSSFFDYWGQGILVTVSS", "VL": "DIQMTQSPSSLSASVGDRVTITCRASQYISSWLAWYQQKPEKAPKSLIYAASSLQSGVPSRFSGSGSGTDFTLTISSLQPEDFATYYCQQYHSYPPTFGQGTRLEIK", "modifications": "Synthetic: 7A11 VH; Synthetic: 7A11 VK1"}, "B2": {"name": "IgG2.3: antibody with IgG2 constant region with C219S (protein)", "constant": "ASTKGPSVFPLAPCSRSTSESTAALGCLVKDYFPEPVTVSWNSGALTSGVHTFPAVLQSSGLYSLSSVVTVPSSNFGTQTYTCNVDHKPSNTKVDKTVERKSCVECPPCPAPPVAGPSVFLFPPKPKDTLMISRTPEVTCVVVDVSHEDPEVQFNWYVDGVEVHNAKTKPREEQFNSTFRVVSVLTVVHQDWLNGKEYKCKVSNKGLPAPIEKTISKTKGQPREPQVYTLPPSREEMTKNQVSLTCLVKGFYPSDIAVEWESNGQPENNYKTTPPMLDSDGSFFLYSKLTVDKSRWQQGNVFSCSVMHEALHNHYTQKSLSLSPGK", "modifications": "left off: another chain or arm of the molecule", "notes": "antibody with IgG2 constant region with C219S"}, "B3": {"name": "IgG2.3G1-AY-V27: IgG2.3G1-AY with S267E (protein)", "chain": "ASTKGPSVFPLAPCSRSTSESTAALGCLVKDYFPEPVTVSWNSGALTSGVHTFPAVLQSSGLYSLSSVVTVPSSNFGTQTYTCNVDHKPSNTKVDKTVERKSCVECPPCPAPELLGGPSVFLFPPKPKDTLMISRTPEVTCVVVDVEHEDPEVKFNWYVDGVEVHNAKTKPREEQYNSTYRVVSVLTVLHQDWLNGKEYKCKVSNKALPAPIEKTISKAKGQPREPQVYTLPPSREEMTKNQVSLTCLVKGFYPSDIAVEWESNGQPENNYKTTPPVLDSDGSFFLYSKLTVDKSRWQQGNVFSCSVMHEALHNHYTQKSLSLSPGK", "modifications": "Synthetic: IgG2.3G1-AY-V27", "notes": "IgG2.3G1-AY with S267E"}, "B4": {"name": "IgG2.5G1-AY-V27: IgG2-B-form variant (C131S) hybrid with IgG1f, V27 (protein)", "constant": "B3 chain with C14S, S102C", "modifications": "left off: another chain or arm of the molecule"}}, "key": {"[1]": {"target": "T1, endogenous CD73 activity in Calu-6 cells (Homo sapiens, UniProt P21589)", "T1 construct": "Calu6 (CD73 endogenous expressors; human pulmonary adenocarcinoma cell line); endogenous in cells; host or cells: Calu6 (human pulmonary adenocarcinoma)", "T1 sequence (P21589 27-549)": "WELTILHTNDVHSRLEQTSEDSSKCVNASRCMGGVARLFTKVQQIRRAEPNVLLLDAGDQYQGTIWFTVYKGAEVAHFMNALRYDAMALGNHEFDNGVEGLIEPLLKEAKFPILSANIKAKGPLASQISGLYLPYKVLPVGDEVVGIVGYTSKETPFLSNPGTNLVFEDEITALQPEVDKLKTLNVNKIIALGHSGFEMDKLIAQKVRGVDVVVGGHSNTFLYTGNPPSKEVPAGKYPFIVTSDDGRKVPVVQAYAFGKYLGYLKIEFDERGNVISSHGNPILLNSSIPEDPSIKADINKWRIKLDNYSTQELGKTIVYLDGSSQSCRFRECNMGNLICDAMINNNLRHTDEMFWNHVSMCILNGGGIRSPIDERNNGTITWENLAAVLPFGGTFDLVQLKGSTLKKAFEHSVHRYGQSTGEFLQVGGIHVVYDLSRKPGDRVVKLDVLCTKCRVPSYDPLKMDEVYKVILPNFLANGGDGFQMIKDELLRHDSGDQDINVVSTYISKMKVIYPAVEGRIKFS", "test": "Dual cell line HTRF cAMP assay (Calu-6 and HEK293/A2AR cells)", "format": "cell-based", "conditions": "percentage of inhibition compared to 100 nM 11F11 set to 100%", "experimental": "CD73 antibodies were serial diluted with PBS buffer containing 0.2% BSA, and plated 5 μl/well in 384 well white bottom proxiplate (PerkinElmer, Waltham, Mass.). Calu-6 cells were harvested and resuspend in PBS containing 0.2% BSA, then 5 μl of cells (300 cells/well) were added to the plate. The cells were incubated with antibodies for 10 minutes at 37° C. […] The cells were further incubated with AMP for 30 minutes at 37° C. During this time, HEK293/A2AR cells were harvested and diluted to 0.4 million/ml in PBS containing 0.2% BSA. They were added into the assay plate at 5 μl/well and continued to incubate at 37° C. for 1 hr. HRTF assays were performed using the homogenous time-resolved fluorescence (HTRF) HiRange cAMP detection kit (Cisbio, Bedford, Mass.) by adding 10 μl/well cAMP-conjugated d2 and 10μl/well europium cryptate conjugated anti-cAMP antibody in lysis buffer according to the manufacturer's instructions. Plates were incubated at room temperature for 60 minutes and Fluorescence Resonance Energy Transfer (FRET) signals (665 and 615 nM) were read using an EnVision plate reader (PerkinElmer, Waltham, Mass.). The FRET signal was calculated as the ratio of signal from the 665 nm (acceptor) and 615 nm (donor) channels and multiplied by 10,000. IC50 and Ymax were measured. […] All calculations were determined as a percentage of inhibition compared to this control, which was set to 100%."}, "[2]": {"test": "Differential scanning calorimetry, thermal stability of CD73 mAbs", "format": "physicochemical", "conditions": "PBS pH 7.1", "protocol": "The thermal stability of CD73 mAbs were determined using a MicroCal Capillary DSC instrument (GE Healthcare). Antibodies were analyzed at a concentrations of 0.5-0.75 mg/ml in PBS pH 7.1. To stabilize the DSC instrument baseline and obtain a consistent thermal history, multiple scans of buffer alone in both the sample and reference cell were recorded prior to sample analysis. Sample scans contained mAb in the sample cell and PBS pH 7.1 in the reference cell. All scans were run from 10-110° C. at a scan rate of 60°/hr using a 5 minute pre-cycle thermostat period and no post-cycle thermostat period. Data (as shown in Table 15 below) were analyzed using MicroCal Origin Cap DSC analysis software. The appropriate buffer-buffer blank scans were subtracted from the sample-buffer data, and the transition midpoint temperature (Tm) values were determined by fitting the data to a non-2-state model. Tm1, Tm2 and Tm3 are the Tms for different domains in the antibodies."}, "CD73 on NCI-H292 cells": {"target": "T2, CD73 on NCI-H292 cells (Homo sapiens, UniProt P21589)", "T2 construct": "maintenance of downregulation of endogenous CD73; endogenous in cells; host or cells: NCI-H292", "T2 sequence (P21589 27-549)": "T1 sequence (P21589 27-549)", "test": "Flow cytometry based cross-blocking on NCI-H292 cells", "format": "binding", "conditions": "FITC-labeled 11F11, 10 ug/mL", "protocol": "The antibodies were also subjected to flow cytometry based cross-blocking. The experiment was conducted as follows using one set of labeled fluorescently labeled antibody and a second set of unlabeled antibody: 100000 NCI-H292 cells were seeded per well. The plate was spun down and the cells were resuspended in 100 uL 2% FBS in PBS per well. The cells were blocked on ice for 20 min. Unlabeled antibody, as indicated, in 2% FBS in PBS was added to each well. […] 6 wells of cells were incubated without antibody, and were resuspended in 100 uL 2% FBS in PBS only (for controls). The cells were then incubated on ice for 30 min. The cells were washed twice with 2% FBS in PBS and the samples were resuspended in 140 uL 2% FBS in PBS, and analyzed on a FacsCalibur flow cytometer (Becton Dickinson)."}, "[3]": {"system": "hCD32a-H131, hCD32a-R131, hCD32b, hCD16a-V158, hCD64", "test": "BLI (Fortebio Octet) binding of FcgR analytes to antibodies captured from supernatants", "set-up": "species or system human", "protocol": "(§1) The binding of antibodies to Fc gamma receptors (FcγRs or FcgRs) was studied using biosensor technologies including Biacore surface plasmon resonance (SPR) and Fortebio Biolayer Interferometry (BLI). SPR studies were performed on a Biacore T100 instrument (GE Healthcare) at 25° C. The Fab fragment from a murine anti-6×His antibody was immobilized on a CM5 sensor chip using EDC/NHS to a density of ˜3000 RU. Various his-tagged FcgRs (7 ug/ml) were captured via the C-terminal his-tag using a contact time of 30 s at 10 ul/min, and the binding of 1.0 μM antibody was evaluated in a running buffer of 10 mM NaPO4, 130 mM NaCl, 0.05% p20 (PBS-T) pH 7.1. FcgRs used for these experiments included CD64 (FcgRI), CD32a-H131 (FcgRIIa-H131), CD32a-R131 (FcgRIIa-R131), CD32b (FcgRIIb), CD16a-V158 (FcgRIIIa-V158), CD16b-NA1 (FcgRIIIb-NA1), and CD16B-NA2 (FcgRIIIb-NA2). BLI experiments were performed on a Fortebio Octet RED instrument (Pall, Fortebio) at 25° C. in 10 mM NaPO4, 130 mM NaCl, 0.05% p20 (PBS-T) pH 7.1. Antibodies were captured out of undiluted expression supernatants on protein A coated sensors, followed by the binding of 1 μM hCD32a-H131, hCD32a-R131, hCD32b, hCD16a-V158, or 0.1 μM hCD64 analytes.\nThe next set of constructs was used to engineer effector function into the otherwise effector function negative IgG2 isotype. […]"}, "human FcγRs": {"system": "human FcγRs", "test": "SPR binding to human FcγRs (anti-his Fab captured FcgR-his proteins)", "conditions": "1.0 μM antibody", "protocol": "Binding of the constructs to human FcγRs was measured via SPR. hCD64 and hCD32a-H131 binding data for IgG1.1 and IgG2 molecules were consistent with expected values for the different Fcs. IgG1.1f is the most inert Fc.\nas §1, with “Antibodies were captured out of undiluted expression supernatants on protein A coated sensors, followed by the binding of 1 μM hCD32a-H131, hCD32a-R131, hCD32b, hCD16a-V158, or 0.1 μM hCD64 analytes.” left out"}}, "note": "Numbering of substitutions follows the chain as printed. Names may count otherwise."}
{"molecule": "Nc1ncnc2c1ncn2[C@@H]1O[C@H](COP(=O)(O)CP(=O)(O)O)[C@@H](O)[C@H]1O", "note": "[APCP]", "values": [{"measurement": "Ymax", "setting": "[1]", "result": 97, "unit": "%"}]}
{"molecule": "B1", "values": [{"measurement": "DSC Tm1 (oC)", "setting": "[2]", "result": 64.8, "unit": "oC"}, {"measurement": "DSC Tm2 (oC)", "setting": "[2]", "result": 70.2, "unit": "oC"}, {"measurement": "DSC Tm3 (oC)", "setting": "[2]", "result": 82.8, "unit": "oC"}, {"measurement": "DSC Tonset (oC)", "setting": "[2]", "result": 56.0, "unit": "oC"}, {"measurement": "competition with 11F11", "setting": "CD73 on NCI-H292 cells", "result": "competes with 11F11"}]}
{"molecule": "B2", "values": [{"measurement": "FcgR binding properties (BLI, supernatants)", "setting": "[3]", "result": "appreciable binding to only CD32a-H131"}]}
{"molecule": "B3", "values": [{"measurement": "FcgR binding properties (SPR)", "setting": "human FcγRs", "result": "comparable FcgR binding properties to IgG1f and IgG1f-S267E"}]}
{"molecule": "B4", "values": [{"measurement": "FcgR binding properties (SPR)", "setting": "human FcγRs", "result": "IgG1f or modified IgG1f like effector functions"}]}
